We go through three molecules from publication PMC10847431, “Evidence the Isc iron–sulfur cluster biogenesis machinery is the source of iron for [NiFe]-cofactor biosynthesis in Escherichia coli” (Scientific Reports, 2024).

B1: HypD (natural protein, E. coli, UniProt P24192 1-373, looked up)
chain: MRFVDEYRAPEQVMQLIEHLRERASHLSYTAERPLRIMEVCGGHTHAIFKFGLDQLLPENVEFIHGPGCPVCVLPMGRIDTCVEIASHPEVIFCTFGDAMRVPGKQGSLLQAKARGADVRIVYSPMDALKLAQENPTRKVVFFGLGFETTMPTTAITLQQAKARDVQNFYFFCQHITLIPTLRSLLEQPDNGIDAFLAPGHVSMVIGTDAYNFIASDFHRPLVVAGFEPLDLLQGVVMLVQQKIAAHSKVENQYRRVVPDAGNLLAQQAIADVFCVNGDSEWRGLGVIESSGVHLTPDYQRFDAEAHFRPAPQQVCDDPRARCGEVLTGKCKPHQCPLFGNTCNPQTAFGALMVSSEGACAAWYQYRQQESEA
notes: HypD, hydrogenase maturation factor of Escherichia coli; printed mass 41,363.4 Da without and 41,715 Da with the [4Fe-4S] cluster; Carries a [4Fe-4S] cluster in all isolated complexes; No tag is named for HypD; also called native HypD; source: co-purified anoxically with it (StrepTactin Sepharose, when required Q-Sepharose)
B2: StrepII-tagged HypC (natural protein, E. coli, UniProt P0AAM3 2-90, looked up)
chain: CIGVPGQIRTIDGNQAKVDVCGIQRDVDLTLVGSCDENGQPRVGQWVLVHVGFAMSVINEAEARDTLDALQNMFDVEPDVGALLYGEEK
modifications: mixed population: unmodified species and species with +26 Da, +28 Da (CO or formyl), +16 Da (oxidation) and +136 Da (proposed Fe(CN)2CO) modifications, all associated with or dependent on the N-terminal cysteine residue (Cys2)
notes: HypC, hydrogenase maturation factor of Escherichia coli; lacks M1 (formyl-methionine lost after translation), so that Cys2 is the N-terminal residue; deconvoluted mass with the StrepII tag 10,641.5 Da; also called HypCStrep; StrepII-HypC; source: purified anoxically (StrepTactin Sepharose, when required Q-Sepharose); not shown: StrepII, C-terminal, kept
B3: StrepII-tagged HypC(C2A) (natural protein, E. coli, UniProt P0AAM3 2-90, looked up)
chain: B2 chain with C1A
notes: HypC of Escherichia coli with the exchange C2A (codon 2 TGC to GCG); single major species, deconvoluted mass 10,611 Da, without the modifications seen on native HypC; lacking M1 as native HypC; also called StrepII-HypCC2A; source: E. coli DHP-D (ΔhypD) carrying pT-hypDC(C2A)Strep, co-produced with HypD; purified anoxically (StrepTactin Sepharose); not shown: StrepII, C-terminal, kept

The assay “StrepII-tagged HypC” concerns the target B2. Nature of the assay: native MS; anaerobically isolated StrepII-tagged HypC-HypD complexes, about 10 μM, 500 mM ammonium acetate pH 6.8, nano-ESI High-Mass Q-TOF II, collision energy 30 V (90 V for CID dissociation); complexes from DHP-D, ΔsufA, ΔiscU and ΔentC-ΔfeoB strains. The note with it: both partners purified.
For assay [1], the target named is B1. The assay can be described thus: pull-down; StrepII-tagged HypC co-produced with HypD in E. coli strains with defects in iron metabolism; anoxic StrepTactin Sepharose affinity purification; SDS-PAGE with Coomassie staining and western blots with antisera against HypD and HypC. As to conditions: partners not purified. In general terms: In western blotting, separated proteins are transferred to a membrane and probed.

The target of assay [2] is B1. Nature of the assay: native MS; anaerobically isolated StrepII-tagged HypC-HypD complexes, about 10 μM, 500 mM ammonium acetate pH 6.8, nano-ESI High-Mass Q-TOF II, collision energy 30 V (90 V for CID dissociation); complexes from DHP-D, ΔsufA, ΔiscU and ΔentC-ΔfeoB strains. As to conditions: both partners purified.

Where a chain is given by its changes, count along the chain named. Names may count otherwise. “And” between values parts separate entries of the source, which are not always exact repeats. Equal entries are not always repeated.

Consider B1, for which, in the assay with StrepII-tagged HypC, the “stoichiometry N” value is 1 HypC:HypD; the “stoichiometry of a minor complex species” value is 2 HypC:HypD (2:1) and 1 HypC:HypD (2:2). For the molecule B2, the binding result in the assay with HypD [1] is recorded as “binds”. B3: the binding result in the assay with HypD [2] is on record as “binds”.
